The record followed here is patent publication US20140274782A1, “AFFINITY REAGENTS AND METHODS FOR DETECTION, PURIFICATION, AND PROTEOMIC ANALYSIS OF METHYLATED PROTEINS” (The Board of Trustees of the Leland Stanford Junior …, priority 2013, published 2014).

The target of one assay is T1, G9a and GLP (Homo sapiens, UniProt Q96KQ7+Q9H9B1).
T1 sequence (Q96KQ7 2-1210 limits assumed): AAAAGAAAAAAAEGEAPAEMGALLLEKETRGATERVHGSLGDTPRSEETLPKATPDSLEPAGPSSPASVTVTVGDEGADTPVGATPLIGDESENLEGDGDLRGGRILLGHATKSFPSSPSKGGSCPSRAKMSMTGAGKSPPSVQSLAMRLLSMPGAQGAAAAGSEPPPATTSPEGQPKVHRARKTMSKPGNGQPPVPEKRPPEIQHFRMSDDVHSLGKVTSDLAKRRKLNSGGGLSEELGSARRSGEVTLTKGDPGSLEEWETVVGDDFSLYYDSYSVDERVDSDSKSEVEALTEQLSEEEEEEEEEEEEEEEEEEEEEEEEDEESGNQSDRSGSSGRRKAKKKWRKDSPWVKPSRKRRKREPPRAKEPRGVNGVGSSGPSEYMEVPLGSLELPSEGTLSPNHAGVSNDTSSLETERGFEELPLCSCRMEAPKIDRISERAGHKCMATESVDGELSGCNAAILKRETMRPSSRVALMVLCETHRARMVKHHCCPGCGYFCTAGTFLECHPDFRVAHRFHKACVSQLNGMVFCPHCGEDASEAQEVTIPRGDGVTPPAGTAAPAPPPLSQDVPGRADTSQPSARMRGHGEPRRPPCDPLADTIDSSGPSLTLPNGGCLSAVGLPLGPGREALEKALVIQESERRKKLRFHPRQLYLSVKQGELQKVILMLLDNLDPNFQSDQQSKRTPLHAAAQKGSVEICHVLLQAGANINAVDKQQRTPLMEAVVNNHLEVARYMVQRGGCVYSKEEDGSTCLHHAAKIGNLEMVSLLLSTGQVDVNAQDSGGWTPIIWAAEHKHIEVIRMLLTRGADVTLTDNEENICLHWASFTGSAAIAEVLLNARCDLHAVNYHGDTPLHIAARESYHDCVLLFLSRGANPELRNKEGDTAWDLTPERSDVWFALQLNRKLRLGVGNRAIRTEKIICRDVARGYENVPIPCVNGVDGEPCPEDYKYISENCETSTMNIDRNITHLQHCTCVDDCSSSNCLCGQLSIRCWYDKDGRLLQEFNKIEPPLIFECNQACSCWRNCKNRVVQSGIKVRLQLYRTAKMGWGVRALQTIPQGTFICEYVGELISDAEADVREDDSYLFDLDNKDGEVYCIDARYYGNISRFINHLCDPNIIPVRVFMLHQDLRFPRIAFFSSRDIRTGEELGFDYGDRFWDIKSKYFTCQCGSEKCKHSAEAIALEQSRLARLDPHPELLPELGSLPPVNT
T1 sequence (Q9H9B1 2-1298 limits assumed): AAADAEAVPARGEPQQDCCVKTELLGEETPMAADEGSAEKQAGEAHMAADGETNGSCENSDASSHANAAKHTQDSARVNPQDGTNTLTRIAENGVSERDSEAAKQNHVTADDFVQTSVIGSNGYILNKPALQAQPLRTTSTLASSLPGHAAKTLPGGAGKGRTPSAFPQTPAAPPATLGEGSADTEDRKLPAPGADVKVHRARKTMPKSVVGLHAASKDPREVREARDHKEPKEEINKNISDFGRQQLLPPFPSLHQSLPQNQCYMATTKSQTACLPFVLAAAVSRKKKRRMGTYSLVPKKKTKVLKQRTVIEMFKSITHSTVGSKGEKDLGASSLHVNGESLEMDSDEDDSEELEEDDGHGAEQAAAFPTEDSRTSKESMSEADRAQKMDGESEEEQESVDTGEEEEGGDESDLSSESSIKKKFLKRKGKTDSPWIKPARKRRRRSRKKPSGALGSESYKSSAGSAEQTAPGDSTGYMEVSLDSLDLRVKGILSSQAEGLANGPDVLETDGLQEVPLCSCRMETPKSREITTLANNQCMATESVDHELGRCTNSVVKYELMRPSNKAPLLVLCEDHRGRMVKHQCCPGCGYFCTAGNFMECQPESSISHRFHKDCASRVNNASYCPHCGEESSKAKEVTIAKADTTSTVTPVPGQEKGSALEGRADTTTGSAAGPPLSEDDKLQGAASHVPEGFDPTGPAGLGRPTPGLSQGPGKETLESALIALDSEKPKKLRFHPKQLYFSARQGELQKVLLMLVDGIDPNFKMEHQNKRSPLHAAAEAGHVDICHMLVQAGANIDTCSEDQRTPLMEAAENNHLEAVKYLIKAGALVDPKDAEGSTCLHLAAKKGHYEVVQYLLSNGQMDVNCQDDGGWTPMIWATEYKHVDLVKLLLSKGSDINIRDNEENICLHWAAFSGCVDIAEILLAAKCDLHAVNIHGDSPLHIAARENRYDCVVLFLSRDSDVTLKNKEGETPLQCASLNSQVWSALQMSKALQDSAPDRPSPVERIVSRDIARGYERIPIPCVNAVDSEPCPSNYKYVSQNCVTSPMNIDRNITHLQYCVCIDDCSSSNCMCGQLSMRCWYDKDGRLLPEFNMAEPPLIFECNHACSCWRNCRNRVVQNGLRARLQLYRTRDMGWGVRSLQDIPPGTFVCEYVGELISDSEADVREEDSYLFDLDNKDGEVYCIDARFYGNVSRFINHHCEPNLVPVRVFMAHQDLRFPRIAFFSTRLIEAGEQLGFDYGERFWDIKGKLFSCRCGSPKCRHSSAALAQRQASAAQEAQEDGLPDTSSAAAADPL
The assay can be described thus: Triple SILAC pull-down after UNC0638 treatment of 293T cells, DMSO/UNC0638 ratio of protein captured by 3×MBT.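 As to all read-outs here: mass spectrometry (Q-Exactive) SILAC quantitation, DMSO/UNC0638 ratio computed after subtracting 3×MBTD355N mutant pull-down background, only proteins with at least twofold 3×MBT over mutant signal considered.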 Also noted: cells were treated for 24 hours with UNC0638 at 2.5 μM or DMSO vehicle control; endogenous in cells; host or cells: HEK 293T. The assay is classed as cell-based. The conditions noted are these: for Protein Ratios DMSO/UNC0638: SILAC ratio of protein captured by 3xMBT, 293T cells treated 24 hours with UNC0638 at 2.5 μM or DMSO.

The next assay has as its system 3×MBT domain of L3MBTL1. Briefly: Triple SILAC pull-down, 3xMBT/3xMBTD355N ratio (cytoplasmic, nuclear and chromatin fractions of 293T cells).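 Also: proteins quantified with MaxQuant, requiring at least two unique peptides and quantification in both label directions, normalized to the mean of proteins from a digested loading control.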 The conditions noted are these: SILAC ratio, pull-down by 3xMBT vs 3xMBTD355N, 293T cells. The assay is classed as binding, human.

B1: ACIN1: a known G9a substrate (protein, UniProt Q9UKV3 1-1341, looked up)
Apoptotic chromatin …: MWRRKHPRTSGGTRGVLSGNRGVEYGSGRGHLGTFEGRWRKLPKMPEAVGTDPSTSRKMAELEEVTLDGKPLQALRVTDLKAALEQRGLAKSGQKSALVKRLKGALMLENLQKHSTPHAAFQPNSQIGEEMSQNSFIKQYLEKQQELLRQRLEREAREAAELEEASAESEDEMIHPEGVASLLPPDFQSSLERPELELSRHSPRKSSSISEEKGDSDDEKPRKGERRSSRVRQARAAKLSEGSQPAEEEEDQETPSRNLRVRADRNLKTEEEEEEEEEEEEDDEEEEGDDEGQKSREAPILKEFKEEGEEIPRVKPEEMMDERPKTRSQEQEVLERGGRFTRSQEEARKSHLARQQQEKEMKTTSPLEEEEREIKSSQGLKEKSKSPSPPRLTEDRKKASLVALPEQTASEEETPPPLLTKEASSPPPHPQLHSEEEIEPMEGPAPAVLIQLSPPNTDADTRELLVSQHTVQLVGGLSPLSSPSDTKAESPAEKVPEESVLPLVQKSTLADYSAQKDLEPESDRSAQPLPLKIEELALAKGITEECLKQPSLEQKEGRRASHTLLPSHRLKQSADSSSSRSSSSSSSSSRSRSRSPDSSGSRSHSPLRSKQRDVAQARTHANPRGRPKMGSRSTSESRSRSRSRSRSASSNSRKSLSPGVSRDSSTSYTETKDPSSGQEVATPPVPQLQVCEPKERTSTSSSSVQARRLSQPESAEKHVTQRLQPERGSPKKCEAEEAEPPAATQPQTSETQTSHLPESERIHHTVEEKEEVTMDTSENRPENDVPEPPMPIADQVSNDDRPEGSVEDEEKKESSLPKSFKRKISVVSATKGVPAGNSDTEGGQPGRKRRWGASTATTQKKPSISITTESLKSLIPDIKPLAGQEAVVDLHADDSRISEDETERNGDDGTHDKGLKICRTVTQVVPAEGQENGQREEEEEEKEPEAEPPVPPQVSVEVALPPPAEHEVKKVTLGDTLTRRSISQQKSGVSITIDDPVRTAQVPSPPRGKISNIVHISNLVRPFTLGQLKELLGRTGTLVEEAFWIDKIKSHCFVTYSTVEEAVATRTALHGVKWPQSNPKFLCADYAEQDELDYHRGLLVDRPSETKTEEQGIPRPLHPPPPPPVQPPQHPRAEQREQERAVREQWAEREREMERRERTRSEREWDRDKVREGPRSRSRSRDRRRKERAKSKEKKSEKKEKAQEEPPAKLLDDLFRKTKAAPCIYWLPLTDSQIVQKEAERAERAKEREKRRKEQEEEEQKEREKEAERERNRQLEREKRREHSRERDRERERERERDRGDRDRDRERDRERGRERDRRDTKRHSRSRSRSTPVRDRGGRR
As to B1, the “change in amount captured by 3×MBT following UNC0638 treatment” value with G9a and GLP (293T cells) is reported as “decreased strongly”.

B2: Cleavage and polyadenylation specificity factor subunit 2 (protein, UniProt Q9P2I0 1-782, looked up)
Cleavage and polyadenylation …: MTSIIKLTTLSGVQEESALCYLLQVDEFRFLLDCGWDEHFSMDIIDSLRKHVHQIDAVLLSHPDPLHLGALPYAVGKLGLNCAIYATIPVYKMGQMFMYDLYQSRHNTEDFTLFTLDDVDAAFDKIQQLKFSQIVNLKGKGHGLSITPLPAGHMIGGTIWKIVKDGEEEIVYAVDFNHKREIHLNGCSLEMLSRPSLLITDSFNATYVQPRRKQRDEQLLTNVLETLRGDGNVLIAVDTAGRVLELAQLLDQIWRTKDAGLGVYSLALLNNVSYNVVEFSKSQVEWMSDKLMRCFEDKRNNPFQFRHLSLCHGLSDLARVPSPKVVLASQPDLECGFSRDLFIQWCQDPKNSIILTYRTTPGTLARFLIDNPSEKITEIELRKRVKLEGKELEEYLEKEKLKKEAAKKLEQSKEADIDSSDESDIEEDIDQPSAHKTKHDLMMKGEGSRKGSFFKQAKKSYPMFPAPEERIKWDEYGEIIKPEDFLVPELQATEEEKSKLESGLTNGDEPMDQDLSDVPTKCISTTESIEIKARVTYIDYEGRSDGDSIKKIINQMKPRQLIIVHGPPEASQDLAECCRAFGGKDIKVYMPKLHETVDATSETHIYQVRLKDSLVSSLQFCKAKDAELAWIDGVLDMRVSKVDTGVILEEGELKDDGEDSEMQVEAPSDSSVIAQQKAMKSLFGDDEKETGEESEIIPTLEPLPPHEVPGHQSVFMNEPRLSDFKQVLLREGIQAEFVGGVLVCNNQVAVRRTETGRIGLEGCLCQDFYRIRDLLYEQYAIV
Regarding B2, the “Protein Ratios 3xMBT/D355N” value with 3×MBT domain of L3MBTL1 turned out to be 8.1. Moreover, in the assay with G9a and GLP, the “Protein Ratios DMSO/UNC0638” value was 3.1.

B3: Peroxiredoxin-2 (protein, UniProt P32119 2-198, looked up)
Peroxiredoxin-2: ASGNARIGKPAPDFKATAVVDGAFKEVKLSDYKGKYVVLFFYPLDFTFVCPTEIIAFSNRAEDFRKLGCEVLGVSVDSQFTHLAWINTPRKEGGLGPLNIPLLADVTRRLSEDYGVLKTDEGIAYRGLFIIDGKGVLRQITVNDLPVGRSVDEALRLVQAFQYTDEHGEVCPAGWKPGSDTIKPNVDDSKEYFSKHN
As to B3, in the assay with 3×MBT domain of L3MBTL1, the “Protein Ratios 3xMBT/D355N” value amounted to 8.6. Further, in the assay with G9a and GLP, the “Protein Ratios DMSO/UNC0638” value is reported as 2.3.

B4: Splicing regulatory glutamine/lysine-rich protein 1 (protein, UniProt Q8N9Q2 1-155, looked up)
Protein SREK1IP1: MAVPGCNKDSVRAGCKKCGYPGHLTFECRNFLRVDPKRDIVLDVSSTSSEDSDEENEELNKLQALQEKRINEEEEKKKEKSKEKIKLKKKRKRSYSSSSTEEDTSKQKKQKYQKKEKKKEKKSKSKKGKHHKKEKKKRKKEKHSSTPNSSEFSRK
Turning to B4, the “Protein Ratios 3xMBT/D355N” value in the assay with 3×MBT domain of L3MBTL1 came out at 2.9. Also, in the assay with G9a and GLP, the “Protein Ratios DMSO/UNC0638” value is on record as 4.4.
